Positions count from the first letter of the chain named. Blank lines part the entries; values can stand above or below the binder they belong to.
What was measured:
[1] = molecular target: T1, human ASGR-1 (wild type) (human, UniProt P07306 1-291); assay: flow cytometry, CHO-S:huASGR-1 cells, 11-point titration
T1 construct: also called wt ASGR1; huASGR-1
T1 sequence: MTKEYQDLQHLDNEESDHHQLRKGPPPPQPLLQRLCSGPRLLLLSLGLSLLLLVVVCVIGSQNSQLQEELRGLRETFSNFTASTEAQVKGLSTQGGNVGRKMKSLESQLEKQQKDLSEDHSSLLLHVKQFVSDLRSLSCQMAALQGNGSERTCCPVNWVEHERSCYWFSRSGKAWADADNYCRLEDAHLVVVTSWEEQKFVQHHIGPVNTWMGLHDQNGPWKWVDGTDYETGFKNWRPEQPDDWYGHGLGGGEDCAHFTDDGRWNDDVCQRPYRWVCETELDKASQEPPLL
Protocol: CHO—S stable high-expressing cell line were developed for both human ASGR-1 as well as mouse ASGR-1. A typical 384 well plate multiplex flow cytometery-based cell binding method is described as followed: Parental CHO—S cells and CHO—S:huASGR-1 cells were respectively labeled using a CellTrace CFSE Cell Proliferation Kit (ThermoFisher Catalog #C34554) and CellTrace Violet Cell Proliferation Kit (ThermoFisher Catalog#C34557) CHO—S:muASGR-1 were not labeled. 20 ul of cells at 4C were added to duplicate wells of the 384 well plate. The cells were equally mixed from all three cell lines (30K cells/well). Then 20 ul of the ASGR-1 antibodies (either purified from hybridoma supernatants or made recombinantly) were added in an 11-point dose response using a 1:2 fold serial dilution starting at 100 nM. The cells and antibodies were incubated for 30 min at 4C and then spun down and washed twice with FACS buffer containing 1 mM CaCl2. 30 ul of anti-hulgG-APC secondary antibodies were then added at a 1:1000 dilution) for 30 min at 4C and then washed once with the same buffer. 60 ul of PI (1:1000) was added and then the cells were read by a core flow cytometry facility. The cells were gated first for live cells, then for single cells and finally for the cell dyes to separate the mixed cells into the three different cell populations. Histograms of signal vs count representing the binding profile of each antibody at each antibody concentration were automatically analyzed for the median of the binding signal and then a binding graph was made with log 10 antibody concentration in nM on the X axis with […] from the duplicate wells on the Y-axis. The binding curves were fit with a standard four parameter sigmoidal binding curve and EC50's reported for all graphs with full curves.

[2] = molecular target: T2, human ASGR-1 mutant construct H203 (human, UniProt P07306 1-291); assay: FACS ratio: 65C12 geomean / this mAb geomean
T2 construct: Arg/Glu scanning: non-arginine residues were changed to arginine; Transiently expressed on CHO-S cells
T2 sequence: T1 sequence with H203R
Procedure, shortened: (§1)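 Value is the geomean of reference antibody 65C12 divided by that of the test mAb, correcting for construct expression. Binding was measured by flow cytometry on transiently transfected CHO-S cells after 1 h at 4 °C with antibody at 5 ug/ml. Detection used an anti-Fc Alexa 647 secondary, with 7-AAD to exclude dead cells.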

[3] = molecular target: T1, human ASGR-1 (wild type); assay: FACS ratio: 65C12 geomean / this mAb geomean
Procedure, shortened: as §1

B1: 176H4 (antibody, V domains shown)
VH: QVQLVESGGGVVQPGRSLRLSCAASGFTFSSYGMHWVRQAPGKGLEWVAIIWYDGSYKYYADSVKGRFTISRDNSKNTLYLQMSSLRAEDTAVYYCARDAHDFWSGYFAYWGQGALVTVSS
VL: DIVMTQTPLSLSVTPGQPASISCKSSQSLLHGDGKTYLYWYLQKPGQPPQLLIYEVSNRFSGVPDRFSGSGSGTDFTLKISRVEAEDVGIYYCMQSIQIPWTFGQGTRVEIK
notes: mAb
EC50 [1]: 1 nM | Expression Normalization to mAb 65C12 [2]: 2.52 | Expression Normalization to mAb 65C12 [3]: 1.67

B2: 48B12 (antibody, V domains shown)
VH: EVQLLESGGGLVQPGGSLRLSCAASGFTFSSYAMNWVRQAPGKGLEWVSAISGRGGNTFYADSVKGRFTISRDNSKNTLYLQMNSLRAEDTAVYYCAKRETYNWNYEGFDYWGQGTLVTVSS
VL: SYELTQPPSVSVSPGQTARITCSGDALPKKYAYWYQQKSGQAPVLVIYEDSKRPSGIPERFSGSSSGTMATLTISGAQVEDEADYYCNSTDSSGNHVVFGGGTKLTVL
notes: mAb
EC50 [1]: 38 nM | Expression Normalization to mAb 65C12 [2]: 1.26 | Expression Normalization to mAb 65C12 [3]: 1.07

B3: 22G5 (antibody, V domains shown)
VH: EVQLLESGGGLVQPGGSLRLSCAASGFTFSSYAMNWVRQAPGMGLEWVSVISRSGGYTYYADSVKGRFTISRDNSKNTLYLQMNSLRAEDTAVYYCASRLAVAGSEAFDIWGQGTLVTVSS
VL: DIQMTQSPSSLSASVGDRVTITCRASQNISSYLNWYQQKQGKAPKLLIYAASSLQNGVPSRFSGRGSGTDFTLTISSLQPEDFATYYCQQSYRTPLFTFGPGTKVDFK
notes: mAb
EC50 [1]: 7.2 nM | Expression Normalization to mAb 65C12 [2]: 1.71 | Expression Normalization to mAb 65C12 [3]: 1.24

B5: 184E7 (antibody, V domains shown)
VH: QVQLVQSGAEVKTPGASVKVSCRASGYTFTSYNMHWVRQVPGQGLEWMGWINPNNGGSNYTQKFQGRVTMTRDTSISTAYMELSRLRSDDTAVYYCARKFGDWGQGTLVTVSS
VL: DIQMTQSPSSRSASIGERVTITCRASQGISNYLAWIQQKPGTAPKSLIYAASSLQSGVSSRFSGSGFGTDFTITISSVQREDFATYYCQQYNGYPFTFGHGTKVDIK
notes: mAb
EC50 [1]: 1 nM | Expression Normalization to mAb 65C12 [2]: 1.4 | Expression Normalization to mAb 65C12 [3]: 1.31

B7: 190F8 (antibody, V domains shown)
VH: QVQLVESGGGVVQPGRSLRLSCAASGFTFSTYGMHWVRQAPGKGLEWVAVIWYDGSNKNYADSVKGRFTISRDNSKNTLYLQMNSLRAEDTAVYYCARDQGVGYDGLDVWGQGTTVTVSS
VL: DIQMTQSPSSLSASVGDRVTITCRTSQGIGNYLAWFQQKPGKAPKSLLYKASSLQSGVPSKFSGSGSGTDFTLTISSLQPEDFATYYCQQYMTYPLTFGGGTKVEIK
notes: mAb
EC50 [1]: 9 nM | Expression Normalization to mAb 65C12 [2]: 1.71 | Expression Normalization to mAb 65C12 [3]: 1.54

B13: 75G3 (antibody, V domains shown)
VH: QVQLQQWGAGLLKPSETLSLTCAVYGGSLSGSYWSWIRQPPGKGLEWIGEINLSGSTNYNPSLKSRVTISVDTSKSQFSLTLRSVTAADTAVYYCARDYGGLDYWGQGTLVTVSS
VL: EIVLTQSPGTLSLSPGERATLSCRARQNVDSSYLAWYQQKPGQAPRLLIYGASSRATGIPDRFSGSGSGTDFTLTISRLEPEDFAVFYCQQYERSPWTFGQGTKVEIK
notes: mAb
EC50 [1]: 1 nM | Expression Normalization to mAb 65C12 [2]: 1.78 | Expression Normalization to mAb 65C12 [3]: 1.51

B14: 194A4 (antibody, V domains shown)
VH: QVQLVQSGTEVKKPGASLKVSCKASGYTFTVYYLNWVRQAPGQGLEWMGWINPNSGGTNYAQKFQGRVTMTRDTSISTAYMELSRLRSDDTAVYYCARGYDILTGWGQGTLVTVSS
VL: EIVLTQSPGTLSLSPGERATLSCRASRGVSNIYLAWYQQKPGQAPRLLIYGASNRATGIPDRFSGSGSGTDFTLTISRLEPEDFAVYYCQHNDYSMFTFGPGTKVDIK
notes: mAb
EC50 [1]: 25 nM | Expression Normalization to mAb 65C12 [2]: 2.12 | Expression Normalization to mAb 65C12 [3]: 3.44

B15: 218G4 (antibody, V domains shown)
VH: QVQLVESGGGVVQPGRSLRLSCAASGFTFSSYGLHWVRQAPGKGLEWVAVIWYDGSNKYYADSVKGRFTISRDNSKNTLYLQMNSLRVEDTAVYYCANWYYYYYGMDVWGQGTTVTVSS
VL: QSVLTQPPSVSAAPGQKVTISCSGSSSNIGNNYVSWYQQLPGTAPKLLLYDSNKRPSGIPARFSGSKSGTSATLGITGLQTGDEADYYCGTWDSSLNTVVFGGGTKLTVL
notes: mAb
EC50 [1]: 2.2 nM | Expression Normalization to mAb 65C12 [2]: 3.25 | Expression Normalization to mAb 65C12 [3]: 4.59

These reach a lower EC50 [1]. Values come first.

EC50 [1]: 0.6 nM | Expression Normalization to mAb 65C12 [2]: 1.71 | Expression Normalization to mAb 65C12 [3]: 1.45
B4: 6G7 (antibody, V domains shown)
VH: QVQLVESGGGVVQPGRSLRLSCAASGFTFSSYGMHWVRQTPGKGLEWVAIISYVGKNKYYADSVKGRFTISRDNSKNTLYLQMNSLRAEDTAVYYCARRGNSYGGYGMDVWGQGTTVTVSS
VL: DIQMTQSPSSRSASVGDRVTITCQASQDISNYLNWCQQKPGKALKLLIYDASTLETGVPSRFSGSGSGTDFTFTISSVQPEDIATYYCQQYDNVPITFGQGTRLEIK
notes: mAb

EC50 [1]: 0.41 nM | Expression Normalization to mAb 65C12 [2]: 1.37 | Expression Normalization to mAb 65C12 [3]: 1.54
B6: 72G9 (antibody, V domains shown)
VH: EVQLVESGGGLVKPGGSLRLSCAASGFTFSSYSMNWVRQAPGKGLEWVSSISGSSSYIYYADSVKGRFTISRDNAKNSLYLQMNSLRAEDTAVYFCARGGSRGFDPWGQGTLVTVSS
VL: DIQMTQSPSSLSASVGDRVTITCRASQSITSYLNWYQQKPGKAPKLLIYTASSLQSGVPSRFSGSGSGTDFTLTISSLQPEDFATYYCQQSHSFPFTFGPGTKVDIK
notes: mAb

EC50 [1]: 0.11 nM | Expression Normalization to mAb 65C12 [2]: 2.33 | Expression Normalization to mAb 65C12 [3]: 2.69
B8: 194C1 (antibody, V domains shown)
VH: B7 VH with T31S, K58E, N59H, D99N, Q100R, D105Y
VL: B7 VL with T25A, G30S, L48I, K50A, Q89L, Q90H, M92L
notes: mAb

EC50 [1]: 0.25 nM | Expression Normalization to mAb 65C12 [2]: 7.35 | Expression Normalization to mAb 65C12 [3]: 4.21
B9: 197G3 (antibody, V domains shown)
VH: B7 VH with A23V, T31S, Y32H, Q100P, G101S, L107M
VL: DIQMTQSPSSLSASVGDRVTITCRASQGIGNHLAWFQQKPGKAPKSLIYAASSLQSGVPSKFSGSRSGTDFSLTISSLQPEDFATYYCQQYSNYPVTFGPGTKVDIK
notes: mAb

EC50 [1]: 0.31 nM | Expression Normalization to mAb 65C12 [2]: 1.51 | Expression Normalization to mAb 65C12 [3]: 1.66
B10: 191G10 (antibody, V domains shown)
VH: B7 VH with T31S
VL: B7 VL with N31K, A51V
notes: mAb

EC50 [1]: 0.21 nM | Expression Normalization to mAb 65C12 [2]: 1.96 | Expression Normalization to mAb 65C12 [3]: 2.61
B11: 198G3 (antibody, V domains shown)
VH: B7 VH with R19K, S56T, Y80C
VL: B7 VL with T5A, N31K, S56G
notes: mAb

EC50 [1]: 0.16 nM | Expression Normalization to mAb 65C12 [2]: 2.37 | Expression Normalization to mAb 65C12 [3]: 2.22
B12: 191G1 (antibody, V domains shown)
VH: B7 VH with T31S, K58E, N59H, Q100R, D105Y
VL: B7 VL with T25A, G30S, L48I, K50A, Q90H, M92L
notes: mAb
